Test results published in patent US20260365696A1, “INHIBITORS OF PTP1B / NCK1 INTERACTION AND METHODS OF MAKING AND USING SAME” (Radella Pharmaceuticals LLC, priority 2023, published 2026).
Where two headings read alike, the source gives them in different places. No end group written: not given here.

Key:
db/db mice = test: db/db genetic mouse model of diabetes and obesity; type: in vivo
From the text: Animals: All animals were housed and tested following European (Directive on the Protection of Animals used for Scientific Purposes, 2010/63/EU) and UK Home Office regulations. Experiments were approved by the University Ethics Board and carried out in accordance with the Animal (Scientific Procedures) Act 1986 and following ARRIVE guidelines. Db/db male mice (~4 weeks old) were purchased from Jackson, USA. All mice received standard mouse chow diet and had ad libitum access to food and water and were kept in a 12 h light/dark cycle.
Treatments: Mice were assigned and counterbalanced according to their body weights in to the following groups: control PBS (n=10); MD18 at 15 mg/kg (n=7), 30 mg/kg (n=8), or 45 mg/kg (n=7); or MD20 at 15 mg/kg (n=9), 30 mg/kg (n=10) or 45 mg/kg (n=7). MD18 and MD20 were administered once daily via subcutaneous (SC) injection for 41 days, whereas control mice received a daily SC injection of vehicle (PBS). MD18 and MD20 were kept in −20 °C and dissolved in sterile phosphate buffered saline (PBS).
Body weights and body mass composition: Body weights were recorded twice weekly during the study, and fat mass and lean mass composition was analysed using an EchoMRI scanner (EchoMedical Systems, Houston, TX, U.S.A.).
Metabolic measurements: All animals were five-hour fasted before obtaining basal glucose measurements and GTT, ITT, and corresponding treatments were administered 1 hour before glucose measurements. Tail blood glucose was measured using AlphaTRAK 2 glucose strips and glucometer (Abbot, UK), or blood was collected and glucose assay (AB65333, Abcam) was performed where readings were too high to be recorded via glucometer. Human Actrapid Insulin (NovaNordisk) at 1 IU/kg dose was administered during ITT.
Serum and liver assays: Trunk-derived blood was collected from 5 h-fasted mice into serum separator microtubes and kept at −80 °C. Serum was used for insulin (#EZRMI-13K, Merck) and leptin (#90030, Crystal Chem) analyses.
Statistical analyses: Data were reported as means±SEM and analysed using one- or two-way ANOVA with Bonferroni post hoc tests, as appropriate. GraphPad Prism (V8, GraphPad Software, Inc., San Diego, California, USA) was used for statistical analyses. P-values <0.05 were considered significant.

SH3-2 domain of NCK1 = target: T1, SH3-2 domain of NCK1 (Homo sapiens, UniProt P16333); test: Isothermal titration calorimetry (ITC) binding to NCK1 SH3-2 domain
T1 construct: To amplify the NCK1 SH3-2 domain, the primers; 10xHis tag with TEV site (vector pSF-OXB20-NH2-10HIS) (N, cleaved yes); made in house; host or cells: E. coli C43(DE3)
Procedure, shortened: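 Peptides (3-7.5 mM) titrated into TEV-cleaved, His-purified human NCK1 SH3-2 domain (0.125-0.3 mM) at 25 °C in 10 mM sodium buffer with sodium chloride, pH 8.0. One 0.2 μL then 19 × 2 μL injections; KD from fits with 0.8-1.2 sites, averaged over three runs.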

NCK1 SH3-2 domain [1] = target: T2, NCK1 SH3-2 domain (human); test: ITC
T2 chain: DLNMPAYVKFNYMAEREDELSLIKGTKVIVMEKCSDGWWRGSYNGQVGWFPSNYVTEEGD

NCK1 SH3-2 domain [2] = target: T2, NCK1 SH3-2 domain; test: ITC
NCK1 SH3-2 domain [3] = target: T2, NCK1 SH3-2 domain; test: ITC
NCK1 SH3-2 domain [4] = target: T2, NCK1 SH3-2 domain; test: ITC
NCK1 SH3-2 domain [5] = target: T2, NCK1 SH3-2 domain; test: ITC
NCK1 SH3-2 domain [6] = target: T2, NCK1 SH3-2 domain; test: ITC
NCK1 SH3-2 domain [7] = target: T2, NCK1 SH3-2 domain; test: ITC

## Ac-PPRPPKR-NH2 [MD18, Ac-PPRPPKR-NH2]
db/db mice; 15 mg/kg SC daily, about 6 weeks, vs control
  leptin levels: A trend for decreased leptin levels
db/db mice; 15 mg/kg SC daily, week 4, vs control
  glucose clearance during GTT: better glucose clearance at 15-minutes post-glucose injection
db/db mice; 15 mg/kg and 30 mg/kg SC daily
  fat mass gain: inhibited fat mass gain
db/db mice; 15 mg/kg and 30 mg/kg SC daily, vs control
  body weight gain: significantly inhibited body weight gain
db/db mice; 30 mg/kg SC daily, about 6 weeks, vs control
  fasted insulin levels: A trend for lower fasted insulin levels
db/db mice; 5-hour-fasted, SC daily, vs vehicle
  basal glucose levels: No significant differences
db/db mice; SC daily, compared to MD20
  efficacy with respect to inhibiting body weight, inhibiting fat mass gain, and improving glucose clearance during GTT: better efficacy as compared to MD20 treatment
db/db mice; SC daily, week 6, 1 IU/kg insulin, vs control
  insulin tolerance test (ITT): did not detect any significant differences
SH3-2 domain of NCK1; Peptide truncation analysis, ITC, 25 °C, pH 8.0
  Kd: ≤ 300 µM
SH3-2 domain of NCK1; ability to bind SH3-2 domain of NCK1, stated in text
  Kd: < 193 µM

B1: MH009 (peptide)
chain: Ac-PAPPKR-NH2
NCK1 SH3-2 domain [1]
  Kd: < 300 µM

B2: MH043 (peptide)
chain: EPRPPKR-NH2
modifications: not fully specified (residue 1)
NCK1 SH3-2 domain [2]
  Kd: < 300 µM

B3: MH137 (peptide)
chain: Ac-PPPEHIPPPPRPPKRILEPHNGKCREFFPN-NH2
NCK1 SH3-2 domain [3]
  Kd: < 300 µM

B4: MH067 (peptide)
chain: Ac-PPRFPKR-NH2
NCK1 SH3-2 domain [4]
  Kd: > 600 µM

B5: MH118 (peptide)
chain: Ac-PPRWPKR-NH2
NCK1 SH3-2 domain [5]
  binding result: no binding

B6: MH093 (peptide)
chain: Ac-PPRGPKR-NH2
NCK1 SH3-2 domain [5]
  binding result: no binding

B7: MH063 (peptide)
chain: Ac-PPRPPKRI-NH2
NCK1 SH3-2 domain [3]
  Kd: < 300 µM
NCK1 SH3-2 domain [6]
  Kd: < 300 µM

B8: MH010 (peptide)
chain: Ac-PRAPKR-NH2
NCK1 SH3-2 domain [1]
  Kd: > 1000 µM

B9: MH131 (peptide)
chain: Ac-PPRQPKR-NH2
NCK1 SH3-2 domain [5]
  binding result: no binding

B10: MH036 (peptide)
chain: Ac-PPPRPP-NH2
NCK1 SH3-2 domain [7]
  Kd: > 1000 µM

B11: MH040 (peptide)
chain: Ac-PPEHIP-NH2
NCK1 SH3-2 domain [7]
  Kd: > 1000 µM

B12: MH035 (peptide)
chain: Ac-PPRPPK-NH2
NCK1 SH3-2 domain [7]
  Kd: > 1000 µM

B13: MH135 (peptide)
chain: Ac-WKELSHEDLEPPPEHIPPPPRPPKR-NH2
NCK1 SH3-2 domain [3]
  Kd: < 300 µM

B14: MH076 (peptide)
chain: Ac-PPRPPKK-NH2
NCK1 SH3-2 domain [2]
  Kd: > 1000 µM

B15: MH101 (peptide)
chain: Ac-PPRLPKR-NH2
NCK1 SH3-2 domain [4]
  Kd: < 600 µM

B16: MH041 (peptide)
chain: Ac-PPPRPPK-NH2
NCK1 SH3-2 domain [7]
  Kd: > 1000 µM

B17: MH111 (peptide)
chain: Ac-PPRMPKR-NH2
NCK1 SH3-2 domain [5]
  binding result: no binding

B18: MH136 (peptide)
chain: SVQDQWKELSHEDLEPPPEHIPPPPRPPKR-NH2
modifications: not fully specified (N-terminus)
NCK1 SH3-2 domain [3]
  Kd: < 300 µM

B19: MH130 (peptide)
chain: Ac-PPREPKR-NH2
NCK1 SH3-2 domain [5]
  binding result: no binding

B20: MH128 (peptide)
chain: Ac-PPRDPKR-NH2
NCK1 SH3-2 domain [5]
  binding result: no binding

B21: MH008 (peptide)
chain: Ac-ARPPKR-NH2
NCK1 SH3-2 domain [1]
  Kd: > 1000 µM

B22: MH134 (peptide)
chain: Ac-PPPEHIPPPPRPPKRILEPHNGKCR-NH2
NCK1 SH3-2 domain [3]
  Kd: < 300 µM

B23: MH090 (peptide)
chain: Ac-HEDLEPPPEHIPPPPRPPKR-NH2
NCK1 SH3-2 domain [3]
  Kd: < 300 µM

B24: MH075 (peptide)
chain: H-PPRPPKR-NH2
NCK1 SH3-2 domain [2]
  Kd: < 300 µM

B25: MH012 (peptide)
chain: Ac-PRPPAR-NH2
NCK1 SH3-2 domain [1]
  Kd: < 600 µM

B26: MH077 (peptide)
chain: Ac-PPPEHIPPPPRPPKRILE-NH2
NCK1 SH3-2 domain [3]
  Kd: < 300 µM

B27: MH062 (peptide)
chain: Ac-PPRRPKR-NH2
NCK1 SH3-2 domain [4]
  Kd: < 600 µM

B28: MH097 (peptide)
chain: Ac-PPRIPKR-NH2
NCK1 SH3-2 domain [4]
  Kd: < 300 µM

B29: MH129 (peptide)
chain: Ac-PPRCPKR-NH2
NCK1 SH3-2 domain [5]
  binding result: no binding

B30: MH038 (peptide)
chain: Ac-IPPPPR-NH2
NCK1 SH3-2 domain [7]
  Kd: > 1000 µM

B31: MH125 (peptide)
chain: Ac-PPRVPKR-NH2
NCK1 SH3-2 domain [4]
  Kd: < 300 µM

B32: MH132 (peptide)
chain: Ac-PPRHPKR-NH2
NCK1 SH3-2 domain [5]
  binding result: no binding

B33: MH064 (peptide)
chain: Ac-PPRPPKRIL-NH2
NCK1 SH3-2 domain [3]
  Kd: < 300 µM

B34: MH104 (peptide)
chain: Ac-PPRKPKR-NH2
NCK1 SH3-2 domain [4]
  Kd: < 600 µM

B35: MH108 (peptide)
chain: Ac-PPRSPKR-NH2
NCK1 SH3-2 domain [5]
  binding result: no binding

B36: MH013 (peptide)
chain: Ac-PRPPKA-NH2
NCK1 SH3-2 domain [1]
  Kd: > 1000 µM

B37: MH011 (peptide)
chain: Ac-PRPAKR-NH2
NCK1 SH3-2 domain [1]
  Kd: > 1000 µM

B38: MH037 (peptide)
chain: Ac-PPPPRP-NH2
NCK1 SH3-2 domain [7]
  Kd: > 1000 µM

B39: MH046 (peptide)
chain: Ac-PPRPPKR-NHEt
NCK1 SH3-2 domain [2]
  Kd: < 300 µM

B40: MH127 (peptide)
chain: Ac-PPRNPKR-NH2
NCK1 SH3-2 domain [5]
  binding result: no binding

B41: MH039 (peptide)
chain: Ac-EHIPPP-NH2
NCK1 SH3-2 domain [7]
  Kd: > 1000 µM

B42: MH115 (peptide)
chain: Ac-PPRTPKR-NH2
NCK1 SH3-2 domain [4]
  Kd: < 600 µM

B43: MH089 (peptide)
chain: Ac-PPPEHIPPPPRPPKRILEPH-NH2
NCK1 SH3-2 domain [3]
  Kd: < 300 µM

B44: MH065 (peptide)
chain: Ac-PPRPPKRILE-NH2
NCK1 SH3-2 domain [3]
  Kd: < 300 µM

B45: MH121 (peptide)
chain: Ac-PPRYPKR-NH2
NCK1 SH3-2 domain [4]
  Kd: < 600 µM
